Test results reported in PMC2361330 (British Journal of Cancer, 2006).

Molecular target: Vascular endothelial growth factor receptor 1 (human (endogenous in HT29), UniProt P17948 27-1338)
Experiment: cell-based or functional assay

Sequence of Vascular endothelial growth factor receptor 1 (P17948 27-1338): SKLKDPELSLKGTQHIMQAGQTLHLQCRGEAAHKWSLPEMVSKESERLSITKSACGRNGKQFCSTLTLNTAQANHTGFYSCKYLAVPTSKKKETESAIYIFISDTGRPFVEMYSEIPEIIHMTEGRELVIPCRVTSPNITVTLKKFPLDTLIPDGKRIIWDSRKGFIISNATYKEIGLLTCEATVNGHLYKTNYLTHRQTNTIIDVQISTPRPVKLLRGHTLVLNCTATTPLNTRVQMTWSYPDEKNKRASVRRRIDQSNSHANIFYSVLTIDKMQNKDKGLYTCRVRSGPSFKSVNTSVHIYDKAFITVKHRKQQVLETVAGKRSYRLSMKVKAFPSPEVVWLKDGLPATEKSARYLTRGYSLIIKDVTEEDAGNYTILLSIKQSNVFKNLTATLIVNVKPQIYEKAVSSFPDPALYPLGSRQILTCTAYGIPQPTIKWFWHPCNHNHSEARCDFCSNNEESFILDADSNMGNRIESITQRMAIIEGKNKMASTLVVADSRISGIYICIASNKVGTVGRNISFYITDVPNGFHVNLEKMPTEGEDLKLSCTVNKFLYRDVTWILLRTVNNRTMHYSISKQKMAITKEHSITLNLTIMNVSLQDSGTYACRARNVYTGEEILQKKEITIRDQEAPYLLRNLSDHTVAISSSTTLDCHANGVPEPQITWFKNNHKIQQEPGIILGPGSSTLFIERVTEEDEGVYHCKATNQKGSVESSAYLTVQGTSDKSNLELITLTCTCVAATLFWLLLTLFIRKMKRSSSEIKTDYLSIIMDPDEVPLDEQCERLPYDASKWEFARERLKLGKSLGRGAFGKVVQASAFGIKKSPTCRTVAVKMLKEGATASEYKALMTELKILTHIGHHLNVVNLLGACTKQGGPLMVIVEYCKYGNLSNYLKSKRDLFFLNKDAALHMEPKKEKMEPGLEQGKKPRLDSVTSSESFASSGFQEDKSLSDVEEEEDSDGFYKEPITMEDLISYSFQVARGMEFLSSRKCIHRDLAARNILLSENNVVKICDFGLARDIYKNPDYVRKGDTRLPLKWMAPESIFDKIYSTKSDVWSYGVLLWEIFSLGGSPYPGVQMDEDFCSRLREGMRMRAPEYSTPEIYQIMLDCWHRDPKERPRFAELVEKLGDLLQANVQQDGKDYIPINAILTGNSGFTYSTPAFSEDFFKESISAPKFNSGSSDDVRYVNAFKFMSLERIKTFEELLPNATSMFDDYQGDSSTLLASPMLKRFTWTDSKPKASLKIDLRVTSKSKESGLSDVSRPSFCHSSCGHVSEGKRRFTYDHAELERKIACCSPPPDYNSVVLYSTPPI

B1: Yes (enzyme)
chain: not shown
  Yes kinase activity by immune complex kinase assay in HT29 cells treated with VEGF-A (10 ng ml^−1) for 0-15 min: ~2.5 fold
